Measurements taken from paper PMC6834741.
Where “and” joins values, the source holds several entries; their conditions need not be identical. Equal entries are not always repeated.

Experiments:
[1] = molecular target: His-tagged recombinant human FcγRIIIa (158 V) (human); assay: SPR; Biacore T200; His-tagged FcγR captured by an anti-His antibody on a CM5 chip; dilution series of antibody as analyte; 1:1 kinetic binding model; triplicate
[2] = molecular target: His-tagged recombinant human FcγRIIIb (human) (UniProt O75015); assay: as above
UniProt O75015, sequence (O75015 17-200): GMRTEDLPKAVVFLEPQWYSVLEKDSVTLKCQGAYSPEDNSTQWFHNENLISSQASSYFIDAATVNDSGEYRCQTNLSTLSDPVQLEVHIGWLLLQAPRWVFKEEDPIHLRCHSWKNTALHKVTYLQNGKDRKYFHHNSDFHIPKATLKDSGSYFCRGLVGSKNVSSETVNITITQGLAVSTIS

Kd [1] [µM] | Kd [2] | Substance
0.0913 | 8.14 µM and 8.29 µM | ABP 980 (antibody)
0.193 | 13.8 µM | Trastuzumab (EU) (antibody)
0.146 | 11.8 µM | Trastuzumab (US) (antibody)
